According to article PMC7794343, “Structures of human dual oxidase 1 complex in low-calcium and high-calcium states” (Nature Communications, 2021):

B2: human dual oxidase 1 (hDUOX1), matured protein 20-1551 with N-terminal GFP tag (enzyme, UniProt Q9NRD9-1 20-1551, looked up)
chain: GAQNPISWEVQRFDGWYNNLMEHRWGSKGSRLQRLVPASYADGVYQPLGEPHLPNPRDLSNTISRGPAGLASLRNRTVLGVFFGYHVLSDLVSVETPGCPAEFLNIRIPPGDPMFDPDQRGDVVLPFQRSRWDPETGRSPSNPRDPANQVTGWLDGSAIYGSSHSWSDALRSFSRGQLASGPDPAFPRDSQNPLLMWAAPDPATGQNGPRGLYAFGAERGNREPFLQALGLLWFRYHNLWAQRLARQHPDWEDEELFQHARKRVIATYQNIAVYEWLPSFLQKTLPEYTGYRPFLDPSISSEFVAASEQFLSTMVPPGVYMRNASCHFQGVINRNSSVSRALRVCNSYWSREHPSLQSAEDVDALLLGMASQIAEREDHVLVEDVRDFWPGPLKFSRTDHLASCLQRGRDLGLPSYTKARAALGLSPITRWQDINPALSRSNDTVLEATAALYNQDLSWLELLPGGLLESHRDPGPLFSTIVLEQFVRLRDGDRYWFENTRNGLFSKKEIEEIRNTTLQDVLVAVINIDPSALQPNVFVWHKGDPCPQPRQLSTEGLPACAPSVVRDYFEGSGFGFGVTIGTLCCFPLVSLLSAWIVARLRMRNFKRLQGQDRQSIVSEKLVGGMEALEWQGHKEPCRPVLVYLQPGQIRVVDGRLTVLRTIQLQPPQKVNFVLSSNRGRRTLLLKIPKEYDLVLLFNLEEERQALVENLRGALKESGLSIQEWELREQELMRAAVTREQRRHLLETFFRHLFSQVLDINQADAGTLPLDSSQKVREALTCELSRAEFAESLGLKPQDMFVESMFSLADKDGNGYLSFREFLDILVVFMKGSPEEKSRLMFRMYDFDGNGLISKDEFIRMLRSFIEISNNCLSKAQLAEVVESMFRESGFQDKEELTWEDFHFMLRDHNSELRFTQLCVKGVEVPEVIKDLCRRASYISQDMICPSPRVSARCSRSDIETELTPQRLQCPMDTDPPQEIRRRFGKKVTSFQPLLFTEAHREKFQRSCLHQTVQQFKRFIENYRRHIGCVAVFYAIAGGLFLERAYYYAFAAHHTGITDTTRVGIILSRGTAASISFMFSYILLTMCRNLITFLRETFLNRYVPFDAAVDFHRLIASTAIVLTVLHSVGHVVNVYLFSISPLSVLSCLFPGLFHDDGSEFPQKYYWWFFQTVPGLTGVVLLLILAIMYVFASHHFRRRSFRGFWLTHHLYILLYVLLIIHGSFALIQLPRFHIFFLVPAIIYGGDKLVSLSRKKVEISVVKAELLPSGVTHLRFQRPQGFEYKSGQWVRIACLALGTTEYHPFTLTSAPHEDTLSLHIRAAGPWTTRLREIYSAPTGDRCARYPKLYLDGPFGEGHQEWHKFEVSVLVGGGIGVTPFASILKDLVFKSSVSCQVFCKKIYFIWVTRTQRQFEWLADIIREVEENDHQDLVSVHIYITQLAEKFDLRTTMLYICERHFQKVLNRSLFTGLRSITHFGRPPFEPFFNSLQEVHPQVRKIGVFSCGPPGMTKNVEKACQLINRQDRTHFSHHYENF
modifications: N-linked glycosylation
notes: human DUOX1, matured protein residues 20-1551; Secretion guided by a rat FSHbeta signal peptide before the GFP tag; GFP-tagged protein is 219 kDa; also called GFP-tagged hDUOX1; WT hDOUX1; source: HEK293F, BacMam baculovirus infection; digitonin-solubilised membrane for FSEC; purified with hDUOXA1 (Streptactin beads, peptidisc with NSPr, Superose 6 increase) for cryo-EM; not shown: GFP, …

Experiments:
[1] = molecular target: B2; test: cryo-EM structure; hDUOX1-hDUOXA1 complex in peptidisc (NSPr); 2.5 mM EGTA (low calcium) or 0.5 mM free calcium (high calcium); 100 uM FAD, 500 uM NADPH, 0.5 mM fluorinated octyl-maltoside; details: both partners purified
[2] = molecular target: the molecule itself; test: SEC; fluorescence size-exclusion chromatography (FSEC) of GFP-tagged hDUOX1 co-expressed with hDUOXA1; membrane solubilised in TBS + 1% digitonin, 1 h, 4 °C

B1: human dual oxidase maturation factor 1 (hDUOXA1), as in the purified peptidisc complex (natural protein)
chain: MATLGHTFPFYAGPKPTFPMDTTLASIIMIFLTALATFIVILPGIRGKTRLFWLLRVVTSLFIGAAILAVNFSSEWSVGQVSTNTSYKAFSSEWISADIGLQVGLGGVNITLTGTPVQQLNETINYNEEFTWRLGENYAEEYAKALEKGLPDPVLYLAEKFTPRSPCGLYRQYRLAGHYTSAMLWVAFLCWLLANVMLSMPVLVYGGYMLLATGIFQLLALLFFSMATSLTSPCPLHLGASVLHTHHGPAFWITLTTGLLCVLLGLAMAVAHRMQPHRLKAFFNQSVDEDPMLEWSPEEGGLLSPRYRSMADSPKSQDIPLSEASSTKAY
modifications: N-linked glycosylation on N109
notes: human DUOXA1; cDNA cloned into a non-tagged BacMam vector or one with C-terminal MBP-mScarlet tag; the non-tagged one is surmised here; source: HEK293F, BacMam baculovirus infection, co-expressed with hDUOX1 from a bicistronic vector; purified with hDUOX1 (Streptactin beads, peptidisc, Superose 6 increase)
stoichiometry N [1]: 1 hDUOXA1 per hDUOX1 (2:2)

B2
binding result [2]: binds
